Experimental data published in patent publication US20230272056A1 (Merck Sharp & Dohme, published 2023).
“And” between values parts separate entries of the source, which are not always exact repeats. Equal entries are not always repeated. Where two headings read alike, the source gives them in different places.

How the values were obtained:
[1] = molecular target: T1, human LAP-TGFB1 Fc fusion (human); test: SPR, antigen-Fc captured, Fab analyte
T1 construct: also called human LAP-TGFβ1-Fc; human LAP-TGFβ-Fc isoform 1
T1 sequence (chain, as listed by the source limits assumed): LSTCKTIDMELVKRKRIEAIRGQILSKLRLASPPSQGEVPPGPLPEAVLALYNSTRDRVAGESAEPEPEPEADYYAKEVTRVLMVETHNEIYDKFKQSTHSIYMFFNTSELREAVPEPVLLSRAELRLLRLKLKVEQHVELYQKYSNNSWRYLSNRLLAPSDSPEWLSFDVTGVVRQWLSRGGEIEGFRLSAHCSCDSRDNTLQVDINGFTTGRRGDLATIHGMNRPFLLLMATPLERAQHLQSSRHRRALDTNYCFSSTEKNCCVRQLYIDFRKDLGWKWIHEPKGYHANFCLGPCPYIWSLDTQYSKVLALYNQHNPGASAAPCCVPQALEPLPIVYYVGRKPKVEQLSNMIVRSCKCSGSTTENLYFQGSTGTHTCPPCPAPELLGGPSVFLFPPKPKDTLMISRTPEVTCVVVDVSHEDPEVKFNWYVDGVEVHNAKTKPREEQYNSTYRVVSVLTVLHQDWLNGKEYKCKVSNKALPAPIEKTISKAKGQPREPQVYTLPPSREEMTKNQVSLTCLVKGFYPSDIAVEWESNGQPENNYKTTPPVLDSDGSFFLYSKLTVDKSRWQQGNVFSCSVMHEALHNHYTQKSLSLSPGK
Method in brief: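 Surface plasmon resonance on a Biacore T200 measured how Fab fragments bind human LAP-TGFβ fused to Fc. The Fc protein was captured on a Series S CM4 chip carrying immobilized anti-human Fc antibody, with Fab injected as analyte in 1× HBS-EP+. Signals were double referenced, and rate constants came from a 1:1 binding fit.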

[2] = molecular target: T1, human LAP-TGFB1 Fc fusion; test: SPR
[3] = molecular target: T2, human LAP-TGFB3 Fc fusion (human); test: SPR
T2 construct: also called human LAP-TGFβ3; LAP-TGFβ isoform 3
T2 sequence (chain, as listed by the source limits assumed): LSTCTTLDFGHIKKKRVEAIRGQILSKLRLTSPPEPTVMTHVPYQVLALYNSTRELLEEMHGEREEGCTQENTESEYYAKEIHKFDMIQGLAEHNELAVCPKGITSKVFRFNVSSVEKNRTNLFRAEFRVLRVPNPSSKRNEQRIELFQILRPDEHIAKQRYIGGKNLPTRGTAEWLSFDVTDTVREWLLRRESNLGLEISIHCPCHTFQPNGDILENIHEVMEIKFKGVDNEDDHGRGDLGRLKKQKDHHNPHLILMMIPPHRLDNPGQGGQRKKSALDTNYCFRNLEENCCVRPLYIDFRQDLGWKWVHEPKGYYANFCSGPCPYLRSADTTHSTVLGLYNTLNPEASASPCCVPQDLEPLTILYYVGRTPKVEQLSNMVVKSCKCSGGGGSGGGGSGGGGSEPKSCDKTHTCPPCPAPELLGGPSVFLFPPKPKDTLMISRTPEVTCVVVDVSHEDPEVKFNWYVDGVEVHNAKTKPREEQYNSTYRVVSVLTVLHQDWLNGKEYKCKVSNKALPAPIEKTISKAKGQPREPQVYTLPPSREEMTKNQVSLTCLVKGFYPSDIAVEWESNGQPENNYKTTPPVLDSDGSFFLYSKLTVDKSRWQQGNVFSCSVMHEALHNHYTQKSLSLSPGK
Method: (§1) A Series S CM4 sensor chip (GE Healthcare, catalog BR100534) was immobilized with an anti-human Fc capture antibody following the kit protocol (GE Healthcare, catalog BR100839) on a Biacore T200 instrument with 1× HBS-EP+ (Teknova, catalog H8022). […] Binding specificity between human LAP-TGFβ isoforms 2 and 3 and the tyrosine scanning double mutants were performed in 1× HEPES-buffered saline with EDTA and surfactant (HBS)-EP)+with 0.1 mg/mL BSA at 25° C. […] The binding data were double referenced by subtraction of signal from a reference (capture surface only) flow cell and the negative control 0 nM Fab injection. Binding rate constants were determined by fitting the data with a 1:1 binding model (GE Healthcare Biacore T200 Evaluation software 3.0).

[4] = molecular target: T3, human LAP-TGFB2 Fc fusion (human); test: SPR
T3 construct: also called human LAP-TGFβ2; LAP-TGFβ isoform 2
T3 sequence (chain, as listed by the source limits assumed): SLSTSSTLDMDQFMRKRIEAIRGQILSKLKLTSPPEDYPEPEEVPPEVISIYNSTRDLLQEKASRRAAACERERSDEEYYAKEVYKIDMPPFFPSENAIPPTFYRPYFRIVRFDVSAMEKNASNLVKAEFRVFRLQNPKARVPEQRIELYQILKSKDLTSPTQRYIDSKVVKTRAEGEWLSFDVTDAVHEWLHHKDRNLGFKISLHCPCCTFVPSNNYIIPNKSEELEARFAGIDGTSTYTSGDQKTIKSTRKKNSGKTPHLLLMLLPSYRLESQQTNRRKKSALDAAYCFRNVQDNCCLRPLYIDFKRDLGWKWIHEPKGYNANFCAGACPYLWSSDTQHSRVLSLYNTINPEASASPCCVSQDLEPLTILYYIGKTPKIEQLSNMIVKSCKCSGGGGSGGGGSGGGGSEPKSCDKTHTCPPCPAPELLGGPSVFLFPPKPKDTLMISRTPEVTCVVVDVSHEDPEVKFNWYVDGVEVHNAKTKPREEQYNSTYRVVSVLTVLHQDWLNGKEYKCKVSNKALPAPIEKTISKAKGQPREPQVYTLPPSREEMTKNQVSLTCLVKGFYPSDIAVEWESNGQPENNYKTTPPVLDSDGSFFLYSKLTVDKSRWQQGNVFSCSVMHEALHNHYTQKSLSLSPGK
Method: as §1

[5] = molecular target: T1, human LAP-TGFB1 Fc fusion; test: SPR pH 7.4, antigen-Fc captured, Fab analyte
[6] = molecular target: T1, human LAP-TGFB1 Fc fusion; test: SPR pH 7.4, antigen-Fc captured, Fab analyte; remark: listed apart in the source
[7] = molecular target: T1, human LAP-TGFB1 Fc fusion; test: BLI off-rate screen
Method: (§2) The Fab mutants including a positive control, 20E6 Fab, and a negative control Fab (Molecular Innovations, catalog HU-FAB-4510) were diluted to 200 nM in assay buffer and loaded to FAB2G sensors for 180 seconds followed by a one-hour incubation at room temperature in assay buffer to equilibrate the tips. The Fab loaded sensors were assessed for binding with 100 nM human LAP-TGFβ for 180 seconds followed by a 180 second dissociation phase in assay buffer on a ForteBio HTX (software version 9.0.0.66). Non-specific binding to the negative control Fab was subtracted and the binding sensorgrams were aligned to the start of the association phase on the X and Y axis. The Fab binding was fit with the 1:1 binding model, dissociation phase only, with local fitting using ForteBio Data Analysis 9.0 software.
Twenty-three variants containing a single tyrosine substitution in the light chain CDRs (at one of amino acid positions 24-31, 33, 34, 51-56, and 89-95 according to Kabat numbering scheme) and 21 similar heavy chain CDR variants (at amino acids positions 28-31, 33-35, 50-58 including 52a, 95, 96, 98, and 99 according to Kabat numbering scheme) were generated according to FIG. 1 and listed in Table 6 and their interactions with human LAP-TGFb1 were analyzed by ForteBio interferometry. […] In those sequences the VL is correct, even though these sequences are from the heavy chain. Thus, the VL_X ##Y refers to the position of the tyrosine mutation within the antibody, regardless of whether the sequence is a heavy or light chain.

[8] = molecular target: T1, human LAP-TGFB1 Fc fusion; test: SPR pH 6.0, antigen-Fc captured, Fab analyte
Method in brief: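 Biacore T200 SPR at pH 6.0 in HBS-EP+, antigen-Fc captured on anti-human Fc CM4 surface with Fab as analyte. Sensorgrams double-referenced against capture-only flow cell and 0 nM Fab injection; rate constants fitted to a 1:1 binding model.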

[9] = molecular target: T1, human LAP-TGFB1 Fc fusion; test: BLI off-rate screen; remark: listed apart in the source
Method: as §2

[10] = molecular target: T1, human LAP-TGFB1 Fc fusion; test: SPR, antigen-Fc captured, Fab analyte; remark: listed apart in the source
[11] = molecular target: T4, human LAP-TGFβ1 (construct not stated) (human, UniProt P01137 30-390); test: KinExA, Fab as constant binding partner
T4 construct: also called human LAP-TGFβ isoform 1; titrant
T4 sequence (P01137 30-390 limits assumed): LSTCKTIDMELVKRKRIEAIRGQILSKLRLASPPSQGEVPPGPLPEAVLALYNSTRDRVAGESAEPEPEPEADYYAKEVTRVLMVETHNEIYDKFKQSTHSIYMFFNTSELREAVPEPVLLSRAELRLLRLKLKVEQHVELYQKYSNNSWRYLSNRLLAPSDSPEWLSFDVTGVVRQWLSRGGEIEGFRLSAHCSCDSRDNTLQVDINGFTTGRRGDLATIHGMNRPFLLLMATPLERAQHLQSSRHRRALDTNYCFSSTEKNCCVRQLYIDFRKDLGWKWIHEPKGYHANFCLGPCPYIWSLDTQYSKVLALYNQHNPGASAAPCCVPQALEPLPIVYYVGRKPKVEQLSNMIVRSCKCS
Method: An orthogonal kinetic exclusion assay (KinExA) method was used in this study to measure the affinity of an affinity-matured anti-LAP-TGF β1 Fab 69BJN (referred to as the constant binding partner, CBP) and human LAP-TGFβ1 (referred to as the titrant). […] Two equilibrium experiments were prepared in assay buffer (1× PBS, 1 mg/mL BSA, and 0.05% NaN₃) with 5 pM or 100 pM of 69BJN as CBP followed by mixing and equilibrating with 1:10 serially diluted human LAP-TGFβ1 from 10 nM to 1 pM including a negative control 0 nM. The KinExA method was performed as follows: PMMA beads were loaded into the flow cell, a single concentration of titrant human LAP-TGFβ1 at equilibrium with 69BJN CBP was flowed over the flow cell, free CBP bound by PMMA beads was detected with rabbit anti-human IgG, F(ab′)₂ fragment specific-647 conjugate (Jackson Immunoresearch, catalog 309-005-006). This method was repeated in duplicate over the entire concentration series for each of the two different equilibrium series. The binding signals were analyzed with KinExA Pro software (version 4.4.26) where the free CBP binding signals were converted into percent free response and plotted against the titrant concentration series. The equilibrium KD was determined by using the titrant concentration as a reference and calculating percent activity of the ligand (CBP).

[12] = molecular target: T2, human LAP-TGFB3 Fc fusion; test: SPR; remark: listed apart in the source
Method in brief: (§3)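 Fc-tagged human LAP-TGFβ2 and 3 captured at ~20-40 RU on anti-human Fc surface in HBS-EP+ with 0.1 mg/mL BSA, 25° C; Fab injected at 1000 nM. Double-referenced against capture-only flow cell and 0 nM Fab; rate constants from 1:1 binding model fit.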

[13] = molecular target: T3, human LAP-TGFB2 Fc fusion; test: SPR; remark: listed apart in the source
Method in brief: as §3

Fold improvement in KD [1] [fold]	Kd [1] [nM]	koff [1] [s⁻¹]	kon [1] [M⁻¹ s⁻¹]	binding result [3]	binding result [4]	Fold improvement in KD [10] [fold]	Kd [10] [nM]	koff [10] [s⁻¹]	kon [10] [M⁻¹ s⁻¹]	Binder	further results
1	79.9	0.0769	960000	no binding (tested: 1000 nM Fab)	no binding (tested: 1000 nM Fab)	1	81.2	0.103	1.45e+06	20E6 Fab (80BGJ/85BIT) (Fab, V domains shown, also called 20E6 (80BGJ); 20E6 (85BIT)) VH: EVQLVQSGAEVKKPGASVKVSCKASGYTFTSYWMHWVRQAPGQGLEWMGRIDPQSGGIKYAQKFQGRATLTVDTSTSTAYMELSRLRSDDTAVYYCARWDYGGYFDVWGQGTLVTVSS VL: DIQMTQSPSSLSASVGDRVTITCRASQDITNYLNWYQQKPGKAVKLLIYYTSRLHSGVPSRFSGSGSGTDYTLTISSLQPEDFATYFCQQGDTLPWTFGQGTKLEIKR	Fold change in KD from pH 7.4 to pH 6 [2]: 1.8 fold; Kd [5]: 58.5 nM; koff [5]: 0.0769 s⁻¹; kon [5]: 1.32e+06 M⁻¹ s⁻¹; Fold improvement in KD [6]: 1 fold; Kd [6]: 58.5 nM; koff [6]: 0.0769 s⁻¹; kon [6]: 1.32e+06 M⁻¹ s⁻¹; koff [7]: 0.0468 s⁻¹ and 0.0381 s⁻¹; Kd [8]: 103 nM; koff [8]: 0.096 s⁻¹; kon [8]: 934000 M⁻¹ s⁻¹; koff [9]: 0.0468 s⁻¹ and 0.0381 s⁻¹
695	0.115	0.000488	4.25e+06	–	–	–	–	–	–	69BJN (Fab, V domains shown, also called VH W33D I58T / VL T30Y R53V (69BJN)) VH: EVQLVQSGAEVKKPGASVKVSCKASGYTFTSYDMHWVRQAPGQGLEWMGRIDPQSGGTKYAQKFQGRATLTVDTSTSTAYMELSRLRSDDTAVYYCARWDYGGYFDVWGQGTLVTVSS VL: DIQMTQSPSSLSASVGDRVTITCRASQDIYNYLNWYQQKPGKAVKLLIYYTSVLHSGVPSRFSGSGSGTDYTLTISSLQPEDFATYFCQQGDTLPWTFGQGTKLEIKR	Kd [11]: 0.028 nM; binding result [12]: no binding (tested: 1000 nM Fab); binding result [13]: no binding (tested: 1000 nM Fab)
–	–	–	–	no binding (tested: 1000 nM Fab)	no binding (tested: 1000 nM Fab)	4	20.6	0.0134	650000	VH W33Y/VL T93Y (92BJM) (Fab, V domains shown, also called VH33/VL93) VH: EVQLVQSGAEVKKPGASVKVSCKASGYTFTSYYMHWVRQAPGQGLEWMGRIDPQSGGIKYAQKFQGRATLTVDTSTSTAYMELSRLRSDDTAVYYCARWDYGGYFDVWGQGTLVTVSS VL: DIQMTQSPSSLSASVGDRVTITCRASQDITNYLNWYQQKPGKAVKLLIYYTSRLHSGVPSRFSGSGSGTDYTLTISSLQPEDFATYFCQQGDYLPWTFGQGTKLEIKR	–
